Assay [1] concerns the target GST-E2 335-360 (Epstein-Barr virus) (UniProt P12978). The assay can be described thus: pull-down.
The target of assay [2] is GST-E2 300-360 (Epstein-Barr virus) (UniProt P12978). The assay can be described thus: pull-down.

This is an account of results in paper PMC4018761.

Turning to “endogenous PRMT5 (protein arginine methyltransferase 5) (from UniProt O14744 1-637) (enzyme)”, the percent of endogenous PRMT5 pulled down in assay [1] and in assay [2] was 5% each time.
